Measurements from patent US20190016809A1 (MONASH UNIVERSITY, published 2019).
Changes are numbered by the printed parent chain. Blank lines part the entries; values can stand above or below the binder they belong to.

Tests used:
[1] = molecular target: T1, human CXCR2 (human, UniProt P25025 1-360); experiment: ELISA, L1.2 hCXCR2 cells
T1 construct: also called hCXCR2; C-X-C motif chemokine receptor 2
T1 sequence: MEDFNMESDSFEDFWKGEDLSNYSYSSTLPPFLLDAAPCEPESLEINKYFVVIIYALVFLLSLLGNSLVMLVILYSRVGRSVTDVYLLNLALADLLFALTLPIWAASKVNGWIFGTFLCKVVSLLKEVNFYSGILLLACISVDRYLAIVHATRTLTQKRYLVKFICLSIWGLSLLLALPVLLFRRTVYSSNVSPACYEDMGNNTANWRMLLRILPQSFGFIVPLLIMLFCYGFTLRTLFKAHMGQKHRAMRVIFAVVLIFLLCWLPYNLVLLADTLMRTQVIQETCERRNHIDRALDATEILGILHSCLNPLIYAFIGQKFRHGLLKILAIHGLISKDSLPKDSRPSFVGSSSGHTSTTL

[2] = molecular target: T1, human CXCR2; experiment: flow cytometry on L1.2 hCXCR2 cells
[3] = molecular target: T2, human CXCR7 (human, UniProt P25106 1-362); experiment: flow cytometry on transfected cells
T2 construct: whole, on cells; also called hCXCR7
T2 sequence (P25106 whole entry): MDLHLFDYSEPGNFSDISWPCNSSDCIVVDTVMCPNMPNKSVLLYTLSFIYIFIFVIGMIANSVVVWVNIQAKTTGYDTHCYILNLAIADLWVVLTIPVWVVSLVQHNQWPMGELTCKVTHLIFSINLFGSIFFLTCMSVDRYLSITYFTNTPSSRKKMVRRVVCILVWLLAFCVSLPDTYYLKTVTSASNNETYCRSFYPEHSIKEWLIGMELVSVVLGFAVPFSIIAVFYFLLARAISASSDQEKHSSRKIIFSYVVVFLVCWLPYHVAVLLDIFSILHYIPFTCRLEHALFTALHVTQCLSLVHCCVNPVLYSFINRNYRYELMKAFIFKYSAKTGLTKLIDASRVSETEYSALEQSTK
Description: (§1) To assess reactivity of mAbs against transfected cells, we used indirect immunofluorescence staining and flow cytometry. Cells were washed once with PBS and resuspended in 100 μl PBS containing 2% (wt/vol) BSA and 0.1% (wt/vol) sodium azide (staining buffer) and purified antibody. After 30 min at 4° C., cells were washed twice with staining buffer and resuspended in 50 μl PE-conjugated anti-human IgG (Jackson ImmunoResearch Laboratories) diluted 1:500 in staining buffer for the detection of humanized mAbs or 50 μl PE-conjugated anti-mouse IgG (Jackson ImmunoResearch Laboratories) for the detection of mouse mAbs. After incubating for 20 min at 4° C., cells were washed twice with staining buffer and analyzed on LSRII flow cytometer. 7-AAD staining was used to exclude dead cells.

[4] = molecular target: T3, human CCR6 (human, UniProt P51684 1-374); experiment: flow cytometry on transfected cells
T3 construct: whole, on cells; also called hCCR6
T3 sequence (looked up): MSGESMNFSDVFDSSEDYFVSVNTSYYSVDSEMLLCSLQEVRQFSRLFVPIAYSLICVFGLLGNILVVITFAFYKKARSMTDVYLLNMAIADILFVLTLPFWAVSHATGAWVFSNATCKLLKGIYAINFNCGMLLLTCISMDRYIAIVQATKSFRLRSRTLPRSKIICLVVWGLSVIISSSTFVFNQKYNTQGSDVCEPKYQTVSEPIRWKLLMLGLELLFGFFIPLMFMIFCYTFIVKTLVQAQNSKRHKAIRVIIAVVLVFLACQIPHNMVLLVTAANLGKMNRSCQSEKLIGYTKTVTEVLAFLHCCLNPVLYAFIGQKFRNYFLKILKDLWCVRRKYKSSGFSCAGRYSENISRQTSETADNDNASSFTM
Description: as §1

[5] = molecular target: T4, human CXCR1 (human, UniProt P25024 1-350); experiment: flow cytometry on transfected cells
T4 construct: whole, on cells; also called hCXCR1
T4 sequence (looked up): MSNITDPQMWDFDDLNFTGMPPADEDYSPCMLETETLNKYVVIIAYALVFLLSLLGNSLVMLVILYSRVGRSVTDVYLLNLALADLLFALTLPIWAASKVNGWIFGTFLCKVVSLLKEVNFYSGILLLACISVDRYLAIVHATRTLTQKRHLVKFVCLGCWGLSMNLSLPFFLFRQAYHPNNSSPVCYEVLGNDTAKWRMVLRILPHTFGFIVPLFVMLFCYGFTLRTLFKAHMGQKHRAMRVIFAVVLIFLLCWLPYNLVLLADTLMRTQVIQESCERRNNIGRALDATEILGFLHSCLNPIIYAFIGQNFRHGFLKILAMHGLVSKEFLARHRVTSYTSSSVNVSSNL
Description: as §1

[6] = molecular target: T5, human CXCR3 (human, UniProt P49682 1-368); experiment: flow cytometry on transfected cells
T5 construct: whole, on cells; also called hCXCR3
T5 sequence (looked up): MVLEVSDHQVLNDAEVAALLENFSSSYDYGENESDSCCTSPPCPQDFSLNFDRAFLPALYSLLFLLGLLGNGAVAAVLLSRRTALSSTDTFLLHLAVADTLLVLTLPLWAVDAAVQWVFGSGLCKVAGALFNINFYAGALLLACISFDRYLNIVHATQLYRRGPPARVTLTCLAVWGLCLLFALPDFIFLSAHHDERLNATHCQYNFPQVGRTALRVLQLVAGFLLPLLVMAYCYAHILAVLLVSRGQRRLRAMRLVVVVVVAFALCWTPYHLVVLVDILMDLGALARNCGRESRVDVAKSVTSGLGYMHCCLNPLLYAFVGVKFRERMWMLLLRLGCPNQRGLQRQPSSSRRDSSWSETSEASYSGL
Description: as §1

[7] = molecular target: T6, Peptide 1 (human, biotinylated (position not given)); experiment: ELISA on biotinylated peptide captured on streptavidin
T6 construct: Biotinylated peptide of the human CXCR2 N-terminal region, captured on streptavidin plates; also called Nter-1; Peptide 1/Nter-1
T6 peptide: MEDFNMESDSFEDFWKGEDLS
Description: (§2) Epitope mapping studies were performed to determine the region within CXCR2 that is recognized by anti-CXCR2 mAb. Initially, biotinylated peptides corresponding to the N-terminal region and the first, second and third extracellular loops of human CXCR2 were used in an ELISA.
(§3) Three overlapping biotinylated peptides spanning the entire N-terminal region of human CXCR2 were then synthesized and used in more defined anti-CXCR2 mAb epitope mapping studies. Peptide 1 ([…]) (SEQ ID NO:53) corresponds to amino acid position 1-21 of the human CXCR2; Peptide 2 ([…]) (SEQ ID NO:55) corresponds to amino acid position 10-31 and Peptide 3 ([…]) (SEQ ID NO:54) corresponds to amino acid 20-46 position of the human CXCR2. Briefly, multiwell plates were coated with streptavidin and washed before the biotinylated peptides were added to separate wells and incubated to facilitate binding of the peptides to the plate. Different anti-human CXCR2 antibodies were then tested by adding the respective antibodies to the wells of the plate and incubating the plate. An isotype control and buffer only were included as negative controls. Following washing, appropriate conjugated antibodies were added and the plates were incubated. The plates were washed again and binding of the antibodies to the immobilised peptides was visualised.

[8] = molecular target: T7, Peptide 2 (human, biotinylated (position not given)); experiment: as above
T7 construct: Biotinylated peptide of the human CXCR2 N-terminal region, captured on streptavidin plates; also called Nter-2; Peptide 2/Nter-2
T7 peptide: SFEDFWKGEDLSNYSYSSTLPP
Description: as §2, §3

[9] = molecular target: T8, Peptide 3 (human, biotinylated (position not given)); experiment: as above
T8 construct: Biotinylated peptide of the human CXCR2 N-terminal region; also called Nter-3; Peptide 3/Nter-3
T8 peptide: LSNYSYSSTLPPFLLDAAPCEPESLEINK
Description: as §2, §3

[10] = molecular target: T9, biotinylated peptide corresponding to the second extracellular loop of human CXCR2 (human, UniProt P25025 184-208, limits assumed, biotinylated (position not given)); experiment: as above
T9 construct: domain: second extracellular loop; also called 2nd loop
T9 peptide (looked up): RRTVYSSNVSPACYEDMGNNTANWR
Description: as §2, §3

[11] = molecular target: T10, human CXCR2 (UniProt P25025 1-360); experiment: flow cytometry, CXCR2 L1.2 cells
T10 chain: T1 sequence

[12] = molecular target: T1, human CXCR2; experiment: competition with 125I-labelled CXCL3 (GRO-g) for CXCR2 on human neutrophils
Description: For ligand binding analysis, recombinant human GRO-g (“ligand”) was obtained from Peprotech (New Jersey, USA). 1251-Bolton-Hunter-labelled GRO-g was purchased from Perkin-Elmer (Boston, Mass., USA), with a specific activity of 2200 Ci/mM. Cells were washed once in binding buffer (50 mM Hepes, pH 7.5, 1 mM CaCI, 5 mM MgCb, 0.5% BSA) and resuspended in binding buffer at a concentration of 2.5×10^6 cells/ml. Cold Purified monoclonal antibody (cold competitor) was added to a 96-well plate followed by an equal volume (40 μl) binding buffer containing 1×10^5 cells. Cells and competitor were preincubated at room temperature for 15 min. Then radiolabeled ligand (final concentration 0.5-2 nM) was added to each well to give a final reaction volume of 120 μl. After a 60-min incubation at room temperature, the cells were washed three times with 1 ml of binding buffer containing 150 mM NaCl. The radioactivity (amount of bound label) in the cell pellets was counted in a TopCount liquid scintillation counter (Packard). Non-specific background binding was calculated by incubating cells […] radiolabelled-ligand. Samples were assayed in duplicate.

- EC50 [1]: 1.2 nM
- EC50 [2]: 1.05 nM
- binding result [3]: no binding
- binding result [4]: no binding
- binding result [5]: no binding
- binding result [6]: no binding
- binding result [7]: binds
- binding result [8]: binds
- binding result [9]: no binding
- binding result [10]: no binding
- EC50 [11]: 1.5 nM
- IC50 [12]: 0.7 nM
B1: m3H9 (antibody, mouse IgG3, V domains shown)
VH: QVQLQQSGPELVKPGASVKISCKASGYAFSNSWMNWVKQRPGKGLEWIGRIYPGDGNINYYGKFKDKATLTADKSSNTAYMQLSSLTSEDSAVYFCARSFLYVDFDYWGQGTTLTVSS
VL: VIVMTQTPLSLPVSLGDQASISCRSSQSLVHSNGNTYLQWYLQKPGQSPKLLIYKVSNRFSGVPDRFSGSGSGTDFTLKISRVEAEDLGVYFCSQGTHVPYTFGGGTKLEIKR
notes: also called mouse 3H9; purified mouse 3H9 mAb

- EC50 [11]: 2.2 nM
B2: h3H9 (antibody, V domains shown)
VH: QVQLVQSGAEVKKPGASVKVSCKASGYAFSNSWMNWVRQAPGQRLEWIGRIYPGDGNINYYGKFKDKATLTADKSANTAYMELSSLRSEDTAVYFCARSFLYVDFDYWGQGTTLTVSS
VL: B1 VL with V1D, T7S, S14T, L15P, D17E, Q18P, K50Q, L88V, G105Q

- EC50 [1]: 1.46 nM
- EC50 [2]: 1.28 nM
- binding result [3]: no binding
- binding result [4]: no binding
- binding result [5]: no binding
- binding result [6]: no binding
- binding result [7]: binds
- binding result [8]: binds
- binding result [9]: no binding
- binding result [10]: no binding
- IC50 [12]: 3.4 nM
B3: m6G7 (antibody, V domains shown)
VH: B1 VH
VL: B1 VL with V1D, I2V, T7A, S28T
notes: Mouse hybridoma monoclonal antibody

- EC50 [1]: 1.4 nM
- EC50 [2]: 1.35 nM
- binding result [3]: no binding
- binding result [4]: no binding
- binding result [5]: no binding
- binding result [6]: no binding
- binding result [7]: binds
- binding result [8]: binds
- binding result [9]: no binding
- binding result [10]: no binding
- IC50 [12]: 11.1 nM
B4: mCM2 (antibody, V domains shown)
VH: B1 VH with D104Y
VL: B1 VL with V1D, I2A, V56L, S72A, G96S
notes: as for B3
